Experiments:
[1] = target: TST (BMC-T1 / HO-5812 with SpyTag inserted on the lumenal side, flanked by six residue glycine-serine linkers) (Haliangium ochraceum); experiment: calculated from fluorescence intensity of purified shells
[2] = target: TSC (BMC-T1 / HO-5812 with SpyCatcherΔN1ΔC2 inserted on the lumenal side, flanked by six residue glycine-serine linkers) (Haliangium ochraceum) (UniProt D0LHE3); experiment: as above
[3] = target: STprobe (SpyTag-mTurquoise2-TEV protease cleavage site-tetracysteine motif-6xHis permeability probe)

TST (BMC-T1 / HO-5812 with SpyTag inserted on the lumenal side, flanked by six residue glycine-serine linkers) (Haliangium ochraceum), sequence (D0LHE3 whole entry): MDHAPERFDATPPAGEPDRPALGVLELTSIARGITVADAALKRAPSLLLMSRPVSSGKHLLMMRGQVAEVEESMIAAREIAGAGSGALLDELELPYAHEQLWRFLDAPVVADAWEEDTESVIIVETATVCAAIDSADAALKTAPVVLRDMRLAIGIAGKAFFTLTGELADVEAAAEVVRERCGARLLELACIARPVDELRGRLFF

Molecule: SCcfp (6xHis-SpyCatcher-mTurquoise2)
- copies of cfp cargo per shell (copies per shell) [1]: 58

Molecule: STcfp (mTurquoise2 with N-terminal 13 residue SpyTag and C-terminal hexahistidine tag)
- copies of cfp cargo per shell (copies per shell) [2]: 73

B1: tobacco etch virus protease (TEVp) (protein)
chain: GESLFKGPRDYNPISSTICHLTNESDGHTTSLYGIGFGPFIITNKHLFRRNNGTLLVQSLHGVFKVKNTTTLQQHLIDGRDMIIIRMPKDFPPFPQKLKFREPQREERICLVTTNFQTKSMSSMVSDTSCTFPSSDGIFWKHWIQTKDGQCGSPLVSTRDGFIVGIHSASNFTNTNNYFTSVPKNFMELLTNQEAQQWVSGWRLNADSVLWGGHKVFMSKPEEPFQPVKEATQLMN
- fluorescence emission shift (FRET of mTurquoise2 to FlAsH) reverted on TEVp addition, probe in uncapped shells [3]: Addition of the FlAsH reagent to the shells results in a fluorescence emission shift which is reverted upon TEVp addition

— patent publication US20200102355A1
